Source: publication PMC8897273 (Journal of molecular biology, 2022)
Like-named read-outs stand apart in the source and are kept apart here.

Key:
[1] = target: T1, PABP1 (Homo sapiens, UniProt P11940 1-636); assay: EMSA
[2] = target: T1, PABP1; assay: EMSA; remark: listed apart in the source
[3] = target: human polyadenylate binding protein 1 (PABP1) (human, UniProt P11940 1-636); assay: native gel or EMSA
human polyadenylate binding protein 1 (PABP1), sequence (P11940 whole entry): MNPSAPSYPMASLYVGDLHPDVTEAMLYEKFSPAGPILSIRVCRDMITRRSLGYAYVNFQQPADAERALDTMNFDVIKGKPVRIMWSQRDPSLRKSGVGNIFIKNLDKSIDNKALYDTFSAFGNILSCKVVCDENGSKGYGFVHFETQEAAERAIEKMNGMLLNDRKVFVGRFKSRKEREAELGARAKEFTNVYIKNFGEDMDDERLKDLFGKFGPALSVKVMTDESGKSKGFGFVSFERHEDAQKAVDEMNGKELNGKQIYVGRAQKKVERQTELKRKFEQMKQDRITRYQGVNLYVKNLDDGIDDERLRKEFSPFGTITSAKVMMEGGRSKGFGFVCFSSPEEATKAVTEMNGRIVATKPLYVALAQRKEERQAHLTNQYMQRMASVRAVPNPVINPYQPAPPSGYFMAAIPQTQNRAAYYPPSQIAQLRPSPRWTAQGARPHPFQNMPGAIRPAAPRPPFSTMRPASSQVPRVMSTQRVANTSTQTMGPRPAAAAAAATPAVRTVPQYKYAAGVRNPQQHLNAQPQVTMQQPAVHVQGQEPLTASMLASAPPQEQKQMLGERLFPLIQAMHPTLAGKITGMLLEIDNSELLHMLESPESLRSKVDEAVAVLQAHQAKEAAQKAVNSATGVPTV

T1 sequence (P11940 whole entry): as above

## GCUAUCCAGAUUCUGAUU (ssRNA) [ssCR1]
[1]
  binding result: no binding

## AAAAAAAAAAAAAAAAAA (ssRNA) [Poly(A)18]
[2]
  binding result: binds

B1: human eIF4G1 fragment (88–653) (domain or fragment, UniProt Q04637-1 88-653, looked up)
chain: MMIPSQISYPASQGAYYIPGQGRSTYVVPTQQYPVQPGAPGFYPGASPTEFGTYAGAYYPAQGVQQFPTGVAPTPVLMNQPPQIAPKRERKTIRIRDPNQGGKDITEEIMSGARTASTPTPPQTGGGLEPQANGETPQVAVIVRPDDRSQGAIIADRPGLPGPEHSPSESQPSSPSPTPSPSPVLEPGSEPNLAVLSIPGDTMTTIQMSVEESTPISRETGEPYRLSPEPTPLAEPILEVEVTLSKPVPESEFSSSPLQAPTPLASHTVEIHEPNGMVPSEDLEPEVESSPELAPPPACPSESPVPIAPTAQPEELLNGAPSPPAVDLSPVSEPEEQAKEVTASMAPPTIPSATPATAPSATSPAQEEEMEEEEEEEEGEAGEAGEAESEKGGEELLPPESTPIPANLSQNLEAAAATQVAVSVPKRRRKIKELNKKEAVGDLLDAFKEANPAVPEVENQPPAGSNPGPESEGSGVPPRPEEADETWDSKEDKIHNAENIQPGEQKYEYKSDQWKPLNLEEKKRYDREFLLGFQFIFASMQKPEGLPHISDVVLDKANKTPLRPLDT
[3]
  binding result: binds
